According to IntAct's records for PubMed 21896273:

B1: Signal peptide peptidase-like 2A (Mus musculus), Q9JJF9 (parent)
chain: MGLLHSLHAPAAALLWSCLLGLAAAQEAILHASTNGVSSLSKDYCMYYNNNWTRLPSSLENATSLSLMNLTGTALCHLSDIPPDGIRNKAVVVHWGPCHFLEKARIAQEGGAAALLIANNSVLIPSSRNKSTFQNVTVLIAVITQKDFKDMKETLGDDITVKMYSPSWPNFDYTLVVIFVIAVFTVALGGYWSGLIELENMKSVEDAEDRETRKKKDDYLTFSPLTVVVFVVICCIMIVLLYFFYRWLVYVMIAIFCIASSMSLYNCLSALIHRMPCGQCTILCCGKNIKVSLIFLSGLCISVAVVWAVFRNEDRWAWILQDILGIAFCLNLIKTMKLPNFMSCVILLGLLLIYDVFFVFITPFITKNGESIMVELAAGPFENAEKLPVVIRVPKLMGYSVMSVCSVPVSVLGFGDIIVPGLLIAYCRRFDVQTGSSIYYISSTIAYAVGMIITFVVLMVMKTGQPALLYLVPCTLITVSVVAWSRKEMKKFWKGSSYQVMDHLDYSTNEENPVTTDEQIVQQ

Variants of: B1
Conditions: with lamp2_human LAMP2, P13473
Chain of lamp2_human LAMP2, P13473 (P13473 whole entry): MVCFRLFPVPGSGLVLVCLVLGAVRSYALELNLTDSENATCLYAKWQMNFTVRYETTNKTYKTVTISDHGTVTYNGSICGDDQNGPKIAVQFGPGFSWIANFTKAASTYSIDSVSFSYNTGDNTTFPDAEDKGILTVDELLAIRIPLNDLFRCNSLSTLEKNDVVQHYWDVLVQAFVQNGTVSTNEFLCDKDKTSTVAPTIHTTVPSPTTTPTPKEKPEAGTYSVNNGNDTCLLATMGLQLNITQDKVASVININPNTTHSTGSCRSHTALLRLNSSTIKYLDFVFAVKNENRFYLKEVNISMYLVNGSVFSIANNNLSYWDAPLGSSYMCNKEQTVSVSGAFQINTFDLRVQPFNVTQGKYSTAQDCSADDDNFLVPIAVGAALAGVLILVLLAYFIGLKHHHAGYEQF

Variant | effect of a mutation on the interaction
Y506A | disrupting interaction

Variants of: B1
Conditions: with lamp2_human LAMP2, P13473
Remark: another data set of the same source

Variant | effect of a mutation on the interaction
Y498A | disrupting interaction
